T1: GFP-9S library array, motif 4 ND N98L;D124Q (synthetic construct, N98L;D124Q)
T1 chain: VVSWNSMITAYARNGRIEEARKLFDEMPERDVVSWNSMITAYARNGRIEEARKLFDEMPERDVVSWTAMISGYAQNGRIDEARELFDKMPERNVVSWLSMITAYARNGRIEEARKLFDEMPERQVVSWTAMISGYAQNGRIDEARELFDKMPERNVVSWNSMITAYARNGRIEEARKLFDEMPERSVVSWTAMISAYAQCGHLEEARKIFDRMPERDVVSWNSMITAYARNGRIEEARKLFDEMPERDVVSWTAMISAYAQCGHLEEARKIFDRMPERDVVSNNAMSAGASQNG

T2: GFP-9S library array, motif 4 ND N98C;D124W (synthetic construct, N98C;D124W)
T2 chain: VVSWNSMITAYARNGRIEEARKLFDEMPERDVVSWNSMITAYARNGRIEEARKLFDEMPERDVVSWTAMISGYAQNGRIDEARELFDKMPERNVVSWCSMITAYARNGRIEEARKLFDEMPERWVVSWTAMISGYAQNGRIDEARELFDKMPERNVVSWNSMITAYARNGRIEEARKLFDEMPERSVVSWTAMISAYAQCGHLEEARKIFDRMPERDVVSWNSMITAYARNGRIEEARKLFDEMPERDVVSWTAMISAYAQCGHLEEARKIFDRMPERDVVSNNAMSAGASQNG

T3: GFP-9S library array, motif 4 ND N98F;D124H (synthetic construct, N98F;D124H)
T3 chain: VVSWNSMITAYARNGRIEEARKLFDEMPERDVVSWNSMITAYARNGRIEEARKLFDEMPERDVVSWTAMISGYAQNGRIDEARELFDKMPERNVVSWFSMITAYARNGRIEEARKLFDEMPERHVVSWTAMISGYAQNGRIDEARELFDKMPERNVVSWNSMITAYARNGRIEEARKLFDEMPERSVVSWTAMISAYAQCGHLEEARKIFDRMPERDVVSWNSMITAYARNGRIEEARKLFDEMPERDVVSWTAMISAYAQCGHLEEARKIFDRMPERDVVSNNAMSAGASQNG

T4: GFP-9S library array, motif 4 ND N98Y;D124L (synthetic construct, N98Y;D124L)
T4 chain: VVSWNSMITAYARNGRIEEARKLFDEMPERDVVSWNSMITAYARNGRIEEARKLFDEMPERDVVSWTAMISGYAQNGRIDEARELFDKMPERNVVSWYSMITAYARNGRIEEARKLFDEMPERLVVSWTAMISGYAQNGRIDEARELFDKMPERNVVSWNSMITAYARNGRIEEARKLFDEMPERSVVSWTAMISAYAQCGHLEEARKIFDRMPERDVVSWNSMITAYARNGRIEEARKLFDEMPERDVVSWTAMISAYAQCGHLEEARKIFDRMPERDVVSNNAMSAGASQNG

T5: GFP-9S library array, motif 4 ND N98M (synthetic construct, N98M)
T5 chain: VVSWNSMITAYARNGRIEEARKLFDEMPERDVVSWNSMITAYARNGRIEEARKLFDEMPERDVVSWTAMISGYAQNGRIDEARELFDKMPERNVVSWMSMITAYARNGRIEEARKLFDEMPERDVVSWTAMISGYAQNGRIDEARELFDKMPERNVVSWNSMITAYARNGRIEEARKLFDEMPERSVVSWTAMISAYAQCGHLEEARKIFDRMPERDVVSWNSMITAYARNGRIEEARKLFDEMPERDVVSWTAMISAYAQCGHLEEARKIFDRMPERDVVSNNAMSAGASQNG


Columns and labels:
Test in all cases: high-throughput RNA pulldown from lysate on Ni-NTA beads; HRP: 50 mM Tris pH 8, 150 mM NaCl, 1 mM beta-mercaptoethanol, 50 ug/ml BSA, 3 ug/ml yeast RNA, 0.5% heparin; ITC and FP: Tris pH 8, 200 mM KCl, 5% glycerol; MST: 50 mM Tris pH 8, 200 mM NaCl, 1 mM DTT, BSA, heparin, 0.05% Tween 20
Details in all cases: tags: N-terminal His-eGFP
[1] = target: T1, GFP-9S library array, motif 4 ND …
[2] = target: T2, GFP-9S library array, motif 4 ND …
[3] = target: T3, GFP-9S library array, motif 4 ND …
[4] = target: T4, GFP-9S library array, motif 4 ND …
[5] = target: T5, GFP-9S library array, motif 4 ND N98M

Binder | Kd ([1]; label: 5' IRDye 800CW) [nM] | Kd ([2]; label: 5' IRDye 800CW) [nM] | Kd ([3]; label: 5' IRDye 800CW) [nM] | Kd ([4]; label: 5' IRDye 800CW) [nM] | Kd ([5]; label: 5' IRDye 800CW) [nM] | Kd ([1]; label: 5' Cy5) [nM] | Kd ([2]; label: 5' Cy5) [nM] | Kd ([3]; label: 5' Cy5) [nM] | Kd ([4]; label: 5' Cy5) [nM] | Kd ([5]; label: 5' Cy5) [nM]
AUUAAACGUGA (ssRNA) [IR-rpoA-A] | 80 | 171 | 188 | 162 | 296 | – | – | – | – | –
AUUAUACGUGA (ssRNA) [IR-rpoA-U] | 58.9 | 234 | 138 | 199 | 129 | – | – | – | – | –
AUUAGACGUGA (ssRNA) [Cy5-rpoA-G] | – | – | – | – | – | 68.5 | 84.9 | 84.9 | 74.6 | 43.1
AUUACACGUGA (ssRNA) [Cy5-rpoA] | – | – | – | – | – | 60 | 86.1 | 73.4 | 89.7 | 143
